Article PMC9549855

Target: T1, nucleocapsid protein (N) (vesicular stomatitis virus), P03521
T1 chain: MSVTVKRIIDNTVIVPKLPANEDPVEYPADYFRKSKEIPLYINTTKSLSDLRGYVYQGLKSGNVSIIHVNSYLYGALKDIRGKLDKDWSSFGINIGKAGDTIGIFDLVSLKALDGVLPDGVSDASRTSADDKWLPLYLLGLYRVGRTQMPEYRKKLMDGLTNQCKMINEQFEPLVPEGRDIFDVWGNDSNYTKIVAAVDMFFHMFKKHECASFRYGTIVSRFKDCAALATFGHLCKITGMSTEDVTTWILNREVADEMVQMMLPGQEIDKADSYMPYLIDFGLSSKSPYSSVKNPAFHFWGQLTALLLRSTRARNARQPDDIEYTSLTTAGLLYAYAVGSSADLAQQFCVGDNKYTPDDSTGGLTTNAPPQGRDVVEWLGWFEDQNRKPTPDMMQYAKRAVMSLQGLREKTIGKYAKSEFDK
Test: cryo-EM structure
Conditions: remark: other sources report otherwise

B1: matrix protein (M), P03519 1-229 (natural protein)
chain: MSSLKKILGLKGKGKKSKKLGIAPPPYEEDTSMEYAPSAPIDKSYFGVDEMDTYDPNQLRYEKFFFTVKMTVRSNRPFRTYSDVAAAVSHWDHMYIGMAGKRPFYKILAFLGSSNLKATPAVLADQGQPEYHTHCEGRAYLPHRMGKTPPMLNVPEHFRRPFNIGLYKGTIELTMTIYDDESLEAAPMIWDHFNSSKFSDFREKALMFGLIVEKKASGAWVLDSISHFK
stoichiometry N: 2
